Blank lines part the entries; values can stand above or below the molecule they belong to.
Tests used:
[1] = target: Recombinant Human IL-13 Rα1/Fc Chimera (R&D) (human) (UniProt P78552); assay: SPR (BIACORE), same format; rat IgG control, by definition the 0% reference
[2] = target: Recombinant Mouse IL-13 Rα1/Fc Chimera (R&D) (mouse) (UniProt O09030); assay: as above
[3] = target: T1, IL13 receptor α1 on TF-1 cells (human, UniProt P78552 22-427); assay: cell-based or functional assay
T1 sequence (looked up): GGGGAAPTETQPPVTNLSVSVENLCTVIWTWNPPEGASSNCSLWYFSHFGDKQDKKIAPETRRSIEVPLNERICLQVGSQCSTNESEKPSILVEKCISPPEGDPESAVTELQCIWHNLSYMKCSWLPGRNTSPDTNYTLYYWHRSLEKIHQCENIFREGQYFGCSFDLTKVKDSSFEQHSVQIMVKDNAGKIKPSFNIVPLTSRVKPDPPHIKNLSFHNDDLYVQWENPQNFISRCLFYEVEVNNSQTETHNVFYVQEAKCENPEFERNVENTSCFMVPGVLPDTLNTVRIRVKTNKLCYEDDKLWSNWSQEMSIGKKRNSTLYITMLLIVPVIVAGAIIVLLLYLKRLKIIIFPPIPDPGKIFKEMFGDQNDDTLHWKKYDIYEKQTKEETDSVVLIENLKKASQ

[4] = target: T2, human IL13 Rα1-Fc (fusion of the extracellular domain of human IL13 receptor α1 and an Fc fragment of human … (human, UniProt P78552 22-343)); assay: SPR (BIACORE), human IL13 Rα1-Fc immobilized on CM5 chip, antibody at 2, 10 and 50 µg/ml
T2 construct: extracellular domain; also called soluble IL13 receptor α1-Fc; not shown: human IgG1 Fc domain (cDNA from plasmid pM1304, WO97/42319), joined in frame over a HindIII site
T2 sequence (looked up): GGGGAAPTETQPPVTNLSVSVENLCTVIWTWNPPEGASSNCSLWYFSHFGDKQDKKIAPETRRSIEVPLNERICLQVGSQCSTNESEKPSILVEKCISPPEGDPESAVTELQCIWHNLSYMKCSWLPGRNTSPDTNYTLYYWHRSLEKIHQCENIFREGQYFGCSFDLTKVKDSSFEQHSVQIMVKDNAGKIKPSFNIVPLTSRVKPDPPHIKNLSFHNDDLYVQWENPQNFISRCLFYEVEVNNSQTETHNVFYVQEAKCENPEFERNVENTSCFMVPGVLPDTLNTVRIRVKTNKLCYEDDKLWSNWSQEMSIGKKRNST
Procedure: The association constant of the anti-IL13 Rα1 antibody prepared was determined using BIACORE. That is, a CM5 chip (Biacore CO., Ltd.) was activated for 7 minutes according to the manual of Biacore Co., Ltd. and then 100 μg/ml of the human IL13 Rα1-Fc prepared in Example 1 was immobilized thereon. An HBS-EP buffer solution (Biacore Co., Ltd) was flown at a flow rate of 20 μl/min, and then the association constants of four kinds of the antibodies diluted to 2, 10, and 50 μg/ml with the same buffer solution were obtained. The binding antibody was dissociated with a 0.1-M glycine hydrochloric acid buffer solution (pH 3.0) and the chip was then used again. The resulting data was analyzed using analyzing software, BIA evaluation, Biacore Co., Ltd., and the dissociation constant (Kd) thereof was calculated.

Recombinant Mouse IL-13 Rα1/Fc Chimera (R&D) (mouse), sequence (O09030 26-340 limits assumed, change not shown): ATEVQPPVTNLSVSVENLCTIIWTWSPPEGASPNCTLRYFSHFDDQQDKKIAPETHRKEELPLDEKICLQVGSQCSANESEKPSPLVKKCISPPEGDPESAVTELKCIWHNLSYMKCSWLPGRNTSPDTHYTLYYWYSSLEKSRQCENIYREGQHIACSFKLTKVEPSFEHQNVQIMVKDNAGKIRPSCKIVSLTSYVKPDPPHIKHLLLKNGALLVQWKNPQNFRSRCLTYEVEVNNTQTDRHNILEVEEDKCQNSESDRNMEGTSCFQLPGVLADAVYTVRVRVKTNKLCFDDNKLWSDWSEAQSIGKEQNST

Human IL13/IL13 R binding inhibition rate (%) [1]: 0% | Mouse IL13/IL13 R binding inhibition rate (%) [2]: 0%
Molecule: rat IgG (control antibody)

IC50 (µg/mL) for cell response with IL 4 (1 ng/mL); TF-1 proliferation [3]: > 10 µg/mL | IC50 (µg/mL) for cell response with IL 13 (1 ng/mL); TF-1 proliferation [3]: 6.6 µg/mL | Kd [4]: 4.1 nM
B1: F997-13-1 antibody (antibody, IgG1, V domains shown)
VH: EVKLQQSGGGLVQPGRSMKLSCAASGFTFSNYGMAWVRQAPKKGLEWVAYISYDGGSTYYRDSVKGRFTISRDNAKSTLYLQMDSLRSEDTATYHCTTPHYGYKYWYFDFWGQGTTVTVSS
VL: DIQMTQSPASLSASLGETVTIECRASEDIYNGLAWYQQKPGKSPQLLIYHANSSHTGVPSRFSGSGSGTQYSLKIDSLQSEDVANYFCQQYYDYPTFGAGTKLELKR

IC50 (µg/mL) for cell response with IL 4 (1 ng/mL); TF-1 proliferation [3]: > 10 µg/mL | IC50 (µg/mL) for cell response with IL 13 (1 ng/mL); TF-1 proliferation [3]: 1.2 µg/mL | Kd [4]: 1.07 nM
B2: F997-20-1 antibody (antibody, IgG1, V domains shown)
VH: EVQLQQSGGGLVQPGRSLNLSCAASGFTFNDYYMAWVRQAPKKGLEWVATIIYDGTRTYYRDSVKGRFTISRDNAKSTLYLQMDSLRSEDTATYYCATPWGSWGQGTTVTVSS
VL: DIQMTQSPSSMPASLGERVTISCRASQGISNFLNWYQQKADGTIKPLIYYTSNLQSAVPSRFSGSGSGTDYSLTISSLEPEDFAMYYCQQYDSSPWTFGGGTKLEITR

Source: patent US20050154192A1 (published 2005)
